Laboratory results: doi:10.1101/2020.12.08.416511 (bioRxiv, 2020)

Target: human β-cardiac myosin subfragment 1 heavy chain (amino acids 1-841) (human, UniProt P12883 1-841)
Experiment: pull-down

Chain of human β-cardiac myosin subfragment 1 heavy chain (amino acids 1-841) (P12883 1-841): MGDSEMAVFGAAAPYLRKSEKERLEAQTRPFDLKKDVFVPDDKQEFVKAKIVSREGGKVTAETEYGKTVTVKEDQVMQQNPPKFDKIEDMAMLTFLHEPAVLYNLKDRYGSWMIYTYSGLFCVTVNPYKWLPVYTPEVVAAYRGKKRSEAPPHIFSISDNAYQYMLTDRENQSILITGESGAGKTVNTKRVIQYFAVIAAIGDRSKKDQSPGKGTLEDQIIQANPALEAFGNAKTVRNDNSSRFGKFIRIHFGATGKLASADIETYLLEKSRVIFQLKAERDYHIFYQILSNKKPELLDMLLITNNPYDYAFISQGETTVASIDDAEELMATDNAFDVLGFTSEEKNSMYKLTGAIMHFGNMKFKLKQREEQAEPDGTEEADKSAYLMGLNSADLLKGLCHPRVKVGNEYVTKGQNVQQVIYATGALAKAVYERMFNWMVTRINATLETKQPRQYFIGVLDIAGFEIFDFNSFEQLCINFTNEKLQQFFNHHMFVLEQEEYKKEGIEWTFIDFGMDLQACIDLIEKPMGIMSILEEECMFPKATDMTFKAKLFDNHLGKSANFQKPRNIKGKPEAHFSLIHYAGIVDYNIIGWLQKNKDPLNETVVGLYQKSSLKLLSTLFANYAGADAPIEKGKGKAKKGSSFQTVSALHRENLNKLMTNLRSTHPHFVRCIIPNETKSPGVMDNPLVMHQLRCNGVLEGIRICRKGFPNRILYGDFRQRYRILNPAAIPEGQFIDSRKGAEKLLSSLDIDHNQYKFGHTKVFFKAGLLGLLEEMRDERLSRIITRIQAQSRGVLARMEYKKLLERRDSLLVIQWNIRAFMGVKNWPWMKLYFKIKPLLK

B1: Alexa 488-labeled human ventricular cardiac regulatory light chain (V105C) (natural protein)
chain: MAPKKAKKRAGGANSNVFSMFEQTQIQEFKEAFTIMDQNRDGFIDKNDLRDTFAALGRVNVKNEEIDEMIKEAPGPINFTVFLTMFGEKLKGADPEETILNAFKCFDPEGKGVLKADYVREMLTTQAERFSKEEVDQMFAAFPPDVTGNLDYKNLVHIITHGEEKD
modifications: Alexa Fluor 488 C5 maleimide on the single reactive cysteine at position 105
- stoichiometry N: 1 A488RLC per M2β-S1
